Laboratory results: patent US20200087400A1 (EUREKA THERAPEUTICS, published 2020)

What was measured:
Assay in all cases: phage ELISA, streptavidin plate, anti-M13-HRP
Bio-P19 member A2E-1 = molecular target: T1, Bio-P19 member A2E-1 (chain 2: C-terminal BirA substrate peptide (BSP), enzymatically biotinylated; its letters are not printed in the patent and it is left out)
T1 construct: also called biotinylated control peptide A2E-1/HLA-A*02:01 monomer
Procedure, shortened: (§1)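 ELISA: clones incubated on streptavidin-captured biotinylated peptide/HLA-A*02:01 complex, detected by HRP-conjugated anti-M13 with absorbance at 450 nm. FACS: T2 cells, unloaded or peptide-loaded with β2M, stained sequentially on ice (30–60 min per step) with scFv phage, anti-M13 and R-PE anti-mouse IgG.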

Bio-P19 member A2E-10 = molecular target: T2, Bio-P19 member A2E-10 (chain 2: C-terminal BirA substrate peptide (BSP), enzymatically biotinylated; its letters are not printed in the patent and it is left out)
T2 construct: also called biotinylated control peptide A2E-10/HLA-A*02:01 monomer
T2 sequence (b2m, as listed by the source): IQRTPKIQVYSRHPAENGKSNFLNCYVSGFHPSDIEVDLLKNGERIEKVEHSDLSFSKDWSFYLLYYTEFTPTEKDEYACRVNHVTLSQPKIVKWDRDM
Procedure, shortened: as §1

Bio-P19 member A2E-11 = molecular target: T3, Bio-P19 member A2E-11 (chain 2: C-terminal BirA substrate peptide (BSP), enzymatically biotinylated; its letters are not printed in the patent and it is left out)
T3 construct: also called biotinylated control peptide A2E-11/HLA-A*02:01 monomer
T3 sequence (b2m, as listed by the source): as above
Procedure, shortened: as §1

Bio-P19 member A2E-13 = molecular target: T4, Bio-P19 member A2E-13 (chain 2: C-terminal BirA substrate peptide (BSP), enzymatically biotinylated; its letters are not printed in the patent and it is left out)
T4 construct: also called biotinylated control peptide A2E-13/HLA-A*02:01 monomer
T4 sequence (b2m, as listed by the source): as above
Procedure, shortened: as §1

Bio-P19 member A2E-15 = molecular target: T5, Bio-P19 member A2E-15 (chain 2: C-terminal BirA substrate peptide (BSP), enzymatically biotinylated; its letters are not printed in the patent and it is left out)
T5 construct: also called biotinylated control peptide A2E-15/HLA-A*02:01 monomer
T5 sequence (b2m, as listed by the source): as above
Procedure, shortened: as §1

Bio-P19 member A2E-17 = molecular target: T6, Bio-P19 member A2E-17 (chain 2: C-terminal BirA substrate peptide (BSP), enzymatically biotinylated; its letters are not printed in the patent and it is left out)
T6 construct: also called biotinylated control peptide A2E-17/HLA-A*02:01 monomer
T6 sequence (b2m, as listed by the source): as above
Procedure, shortened: as §1

Bio-P19 member A2E-19 = molecular target: T7, Bio-P19 member A2E-19 (chain 2 carries a C-terminal BirA substrate peptide (BSP), enzymatically biotinylated; the BSP letters are not given in the patent and are left out)
T7 construct: also called biotinylated control peptide A2E-19/HLA-A*02:01 monomer
T7 sequence (beta, as listed by the source): as the sequence (b2m, as listed by the source) above
Procedure, shortened: as §1

Bio-P19 member A2E-21 = molecular target: T8, Bio-P19 member A2E-21 (chain 2 carries a C-terminal BirA substrate peptide (BSP), enzymatically biotinylated; the BSP letters are not given in the patent and are left out)
T8 construct: also called biotinylated control peptide A2E-21/HLA-A*02:01 monomer
T8 sequence (beta, as listed by the source): as the sequence (b2m, as listed by the source) above
Procedure, shortened: as §1

Bio-P19 member A2E-23 = molecular target: T9, Bio-P19 member A2E-23 (chain 2 carries a C-terminal BirA substrate peptide (BSP), enzymatically biotinylated; the BSP letters are not given in the patent and are left out)
T9 construct: also called biotinylated control peptide A2E-23/HLA-A*02:01 monomer
T9 sequence (beta, as listed by the source): as the sequence (b2m, as listed by the source) above
Procedure, shortened: as §1

Bio-P19 member A2E-2 = molecular target: T10, Bio-P19 member A2E-2 (chain 2 carries a C-terminal BirA substrate peptide (BSP), enzymatically biotinylated; the BSP letters are not given in the patent and are left out)
T10 construct: also called biotinylated control peptide A2E-2/HLA-A*02:01 monomer
T10 sequence (beta, as listed by the source): as the sequence (b2m, as listed by the source) above
Procedure, shortened: as §1

Bio-P19 member A2E-3 = molecular target: T11, Bio-P19 member A2E-3 (chain 2 carries a C-terminal BirA substrate peptide (BSP), enzymatically biotinylated; the BSP letters are not given in the patent and are left out)
T11 construct: also called biotinylated control peptide A2E-3/HLA-A*02:01 monomer
T11 sequence (beta, as listed by the source): as the sequence (b2m, as listed by the source) above
Procedure, shortened: as §1

Bio-P19 member A2E-4 = molecular target: T12, Bio-P19 member A2E-4 (chain 2 carries a C-terminal BirA substrate peptide (BSP), enzymatically biotinylated; the BSP letters are not given in the patent and are left out)
T12 construct: also called biotinylated control peptide A2E-4/HLA-A*02:01 monomer
T12 sequence (beta, as listed by the source): as the sequence (b2m, as listed by the source) above
Procedure, shortened: as §1

Bio-P19 member A2E-6 = molecular target: T13, Bio-P19 member A2E-6 (chain 2 carries a C-terminal BirA substrate peptide (BSP), enzymatically biotinylated; the BSP letters are not given in the patent and are left out)
T13 construct: also called biotinylated control peptide A2E-6/HLA-A*02:01 monomer
T13 sequence (beta, as listed by the source): as the sequence (b2m, as listed by the source) above
Procedure, shortened: as §1

Bio-P19 member A2E-7 = molecular target: T14, Bio-P19 member A2E-7 (chain 2 (heavy): C-terminal BirA substrate peptide, biotinylated there by BirA; tag letters not given, left out)
T14 construct: also called biotinylated control peptide A2E-7/HLA-A*02:01 monomer; not shown: BirA substrate peptide (BSP) tag at the C-terminus of the heavy chain
T14 sequence (b2m, as listed by the source): as above
Procedure, shortened: as §1

Bio-P19 member A2E-8 = molecular target: T15, Bio-P19 member A2E-8 (chain 2 (heavy): C-terminal BirA substrate peptide, biotinylated there by BirA; tag letters not given, left out)
T15 construct: also called biotinylated control peptide A2E-8/HLA-A*02:01 monomer; not shown: BirA substrate peptide (BSP) tag at the C-terminus of the heavy chain
T15 sequence (b2m, as listed by the source): as above
Procedure, shortened: as §1

Bio-P19 member A2E-9 = molecular target: T16, Bio-P19 member A2E-9 (chain 2 (heavy): C-terminal BirA substrate peptide, biotinylated there by BirA; tag letters not given, left out)
T16 construct: also called biotinylated control peptide A2E-9/HLA-A*02:01 monomer; not shown: BirA substrate peptide (BSP) tag at the C-terminus of the heavy chain
T16 sequence (b2m, as listed by the source): as above
Procedure, shortened: as §1

Measured: binding result

T1 sequence (b2m, as listed by the source): as above

B1: PSA146/HLA-A*02:01-specific scFv phage clone #18 (scFv, V domains shown)
VH: QVQLVQSGAEVKKPGESLKISCKGSGYSFTSYWIGWVRQMPGKGLEWMGIIYPGDSDTRYSPSFQGQVTISADKSISTAYLQWSSLKASDTAMYYCARWGSRGFLDAFDIWGQGTMVTVSS
VL: QSVVTQPPSVSAAPGQRVTISCSGSSSNIGNNYVSWYQQLPGAAPRLLIYDNDKRPSGIPDRFSGSKSGTSATLGITGLQTGDEADYYCGTWDSSLSSGVFGGGTKLTVLG
no binding: all assays above

B2: PSA146/HLA-A*02:01-specific scFv phage clone #15 (scFv, V domains shown)
VH: QVQLVQSGAEVKKPGSSVKVSCKASGGTFSSYAISWVRQAPGQGLEWMGRIIPILGIANYAQKFQGRVTITADKSTSTAYMELSSLRSEDTAVYYCARVSQPVYGSSTYDIWGQGTLVTVSS
VL: QAVLTQPPSASGTPGQRVTISCSGRSSNLGSNSVNWYQQVPGTAPKLLIFDNHQRPSGVPDRFSGSKSGTSASLAISGLRSEDETDYYCAAWDDSLNSVVFGGGTKLTVLG
no binding: all assays above
